We go through 2 molecules from paper PMC4153296, “Mutant Taq DNA polymerases with improved elongation ability as a useful reagent for genetic engineering”.

In data set [1] the target is chimeric Taq 8-1 (Thermus aquaticus / environmental DNA chimera) (UniProt P19821). The data set is described as follows: EMSA. Conditions: EMSA: 3 nM DNA, 20 mM Tris-HCl pH 8.8, 10 mM NaCl, 5 mM MgCl2, 14 mM 2-mercaptoethanol, 0.1 mg/ml BSA, 5% glycerol, 40 C, 5 min; 1% agarose gel. In general terms: Mobility shift assays separate free from complexed probe on a gel.
chimeric Taq 8-1 (Thermus aquaticus / environmental DNA chimera), sequence (P19821 whole entry, change not shown): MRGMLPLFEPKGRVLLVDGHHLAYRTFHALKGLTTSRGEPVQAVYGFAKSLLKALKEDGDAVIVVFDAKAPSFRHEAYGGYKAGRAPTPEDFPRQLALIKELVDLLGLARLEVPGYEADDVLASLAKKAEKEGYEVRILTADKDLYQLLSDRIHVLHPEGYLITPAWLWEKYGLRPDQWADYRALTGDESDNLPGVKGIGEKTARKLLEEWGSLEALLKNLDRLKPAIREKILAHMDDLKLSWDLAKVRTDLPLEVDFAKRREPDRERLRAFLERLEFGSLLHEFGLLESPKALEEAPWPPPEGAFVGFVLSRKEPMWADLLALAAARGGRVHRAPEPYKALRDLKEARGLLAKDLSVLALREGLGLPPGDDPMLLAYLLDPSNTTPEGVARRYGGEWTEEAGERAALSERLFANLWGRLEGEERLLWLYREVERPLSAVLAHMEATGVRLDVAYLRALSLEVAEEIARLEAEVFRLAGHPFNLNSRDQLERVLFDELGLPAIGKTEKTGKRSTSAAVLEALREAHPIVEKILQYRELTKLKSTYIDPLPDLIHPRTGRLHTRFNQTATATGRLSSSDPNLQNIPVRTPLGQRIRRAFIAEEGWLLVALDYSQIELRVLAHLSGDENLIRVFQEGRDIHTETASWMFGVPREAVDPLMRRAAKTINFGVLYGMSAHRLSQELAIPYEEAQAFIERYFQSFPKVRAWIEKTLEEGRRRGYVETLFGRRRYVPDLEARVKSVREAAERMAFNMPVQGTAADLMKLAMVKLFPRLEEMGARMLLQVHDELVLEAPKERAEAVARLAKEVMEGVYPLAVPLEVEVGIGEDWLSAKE
Data set [2] concerns the target chimeric Taq 1-2 (Thermus aquaticus / environmental DNA chimera) (UniProt P19821). The data set is described as follows: EMSA. Conditions: EMSA: 3 nM DNA, 20 mM Tris-HCl pH 8.8, 10 mM NaCl, 5 mM MgCl2, 14 mM 2-mercaptoethanol, 0.1 mg/ml BSA, 5% glycerol, 40 C, 5 min; 1% agarose gel.
For data set [3], the target named is chimeric Taq 29-1 (Thermus aquaticus / environmental DNA chimera) (UniProt P19821). The data set is described as follows: EMSA. Conditions: EMSA: 3 nM DNA, 20 mM Tris-HCl pH 8.8, 10 mM NaCl, 5 mM MgCl2, 14 mM 2-mercaptoethanol, 0.1 mg/ml BSA, 5% glycerol, 40 C, 5 min; 1% agarose gel.
chimeric Taq 29-1 (Thermus aquaticus / environmental DNA chimera), sequence (P19821 whole entry, change not shown): as above
The target of data set [4] is chimeric Taq 8-2 (Thermus aquaticus / environmental DNA chimera) (UniProt P19821). The data set is described as follows: EMSA. Conditions: EMSA: 3 nM DNA, 20 mM Tris-HCl pH 8.8, 10 mM NaCl, 5 mM MgCl2, 14 mM 2-mercaptoethanol, 0.1 mg/ml BSA, 5% glycerol, 40 C, 5 min; 1% agarose gel.
chimeric Taq 8-2 (Thermus aquaticus / environmental DNA chimera), sequence (P19821 whole entry, change not shown): as above
The target of data set [5] is chimeric Taq 7-2 (Thermus aquaticus / environmental DNA chimera) (UniProt P19821). As to the kind of experiment: EMSA. Conditions: EMSA: 3 nM DNA, 20 mM Tris-HCl pH 8.8, 10 mM NaCl, 5 mM MgCl2, 14 mM 2-mercaptoethanol, 0.1 mg/ml BSA, 5% glycerol, 40 C, 5 min; 1% agarose gel.
chimeric Taq 7-2 (Thermus aquaticus / environmental DNA chimera), sequence (P19821 whole entry, change not shown): as above
For data set [6], the target named is chimeric Taq 30-1 (Thermus aquaticus / environmental DNA chimera) (UniProt P19821). As to the kind of experiment: EMSA. Conditions: EMSA: 3 nM DNA, 20 mM Tris-HCl pH 8.8, 10 mM NaCl, 5 mM MgCl2, 14 mM 2-mercaptoethanol, 0.1 mg/ml BSA, 5% glycerol, 40 C, 5 min; 1% agarose gel.
chimeric Taq 30-1 (Thermus aquaticus / environmental DNA chimera), sequence (P19821 whole entry, change not shown): as above
Data set [7] deals with chimeric Taq 1-1 (Thermus aquaticus / environmental DNA chimera) (UniProt P19821). As to the kind of experiment: EMSA. Conditions: EMSA: 3 nM DNA, 20 mM Tris-HCl pH 8.8, 10 mM NaCl, 5 mM MgCl2, 14 mM 2-mercaptoethanol, 0.1 mg/ml BSA, 5% glycerol, 40 C, 5 min; 1% agarose gel.
chimeric Taq 1-1 (Thermus aquaticus / environmental DNA chimera), sequence (P19821 whole entry, change not shown): as above
The target in data set [8] is chimeric Taq 7-3 (Thermus aquaticus / environmental DNA chimera) (UniProt P19821). The data set is described as follows: EMSA. Conditions: EMSA: 3 nM DNA, 20 mM Tris-HCl pH 8.8, 10 mM NaCl, 5 mM MgCl2, 14 mM 2-mercaptoethanol, 0.1 mg/ml BSA, 5% glycerol, 40 C, 5 min; 1% agarose gel.
chimeric Taq 7-3 (Thermus aquaticus / environmental DNA chimera), sequence (P19821 whole entry, change not shown): as above
In data set [9] the target is chimeric Taq 4-1 (Thermus aquaticus / environmental DNA chimera) (UniProt P19821). As to the kind of experiment: EMSA. The settings on record: EMSA: 3 nM DNA, 20 mM Tris-HCl pH 8.8, 10 mM NaCl, 5 mM MgCl2, 14 mM 2-mercaptoethanol, 0.1 mg/ml BSA, 5% glycerol, 40 C, 5 min; 1% agarose gel.
chimeric Taq 4-1 (Thermus aquaticus / environmental DNA chimera), sequence (P19821 whole entry, change not shown): as above
Data set [10] concerns the target chimeric Taq 4-2 (Thermus aquaticus / environmental DNA chimera) (UniProt P19821). As to the kind of experiment: EMSA. The settings on record: EMSA: 3 nM DNA, 20 mM Tris-HCl pH 8.8, 10 mM NaCl, 5 mM MgCl2, 14 mM 2-mercaptoethanol, 0.1 mg/ml BSA, 5% glycerol, 40 C, 5 min; 1% agarose gel.
For data set [11], the target named is chimeric Taq 12-1 (Thermus aquaticus / environmental DNA chimera) (UniProt P19821). As to the kind of experiment: EMSA. Conditions: EMSA: 3 nM DNA, 20 mM Tris-HCl pH 8.8, 10 mM NaCl, 5 mM MgCl2, 14 mM 2-mercaptoethanol, 0.1 mg/ml BSA, 5% glycerol, 40 C, 5 min; 1% agarose gel.
chimeric Taq 12-1 (Thermus aquaticus / environmental DNA chimera), sequence (P19821 whole entry, change not shown): as above
Data set [12] deals with chimeric Taq 7-1 (Thermus aquaticus / environmental DNA chimera) (UniProt P19821). The data set is described as follows: EMSA. Conditions: EMSA: 3 nM DNA, 20 mM Tris-HCl pH 8.8, 10 mM NaCl, 5 mM MgCl2, 14 mM 2-mercaptoethanol, 0.1 mg/ml BSA, 5% glycerol, 40 C, 5 min; 1% agarose gel.
chimeric Taq 7-1 (Thermus aquaticus / environmental DNA chimera), sequence (P19821 whole entry, change not shown): as above
Data set [13] addresses chimeric Taq 10-1 (Thermus aquaticus / environmental DNA chimera) (UniProt P19821). The data set is described as follows: EMSA. Conditions: EMSA: 3 nM DNA, 20 mM Tris-HCl pH 8.8, 10 mM NaCl, 5 mM MgCl2, 14 mM 2-mercaptoethanol, 0.1 mg/ml BSA, 5% glycerol, 40 C, 5 min; 1% agarose gel.
The target in another data set is TaqAA (Thermus aquaticus, UniProt P19821 1-832, E742A). As to the kind of experiment: EMSA; 5 mM Mg2+; apparent Kd; EMSA: 3 nM DNA, 20 mM Tris-HCl pH 8.8, 10 mM NaCl, 5 mM MgCl2, 14 mM 2-mercaptoethanol, 0.1 mg/ml BSA, 5% glycerol, 40 C, 5 min; 1% agarose gel. Conditions: protein: recombinant; label: 32P on 27mer; primer-template; 27 bp duplex, 5' overhang 22 nt on the 49mer template.
TaqAA, sequence (P19821 whole entry E742A): as the sequence (P19821 whole entry, change not shown) above, with E742A counted along it

The target of another data set is TaqHA (Thermus aquaticus, UniProt P19821 1-832, E742H). The description is as above. The settings on record: protein: recombinant; label: 32P on 27mer; primer-template; 27 bp duplex, 5' overhang 22 nt on the 49mer template.
TaqHA, sequence (P19821 whole entry E742H): as the sequence (P19821 whole entry, change not shown) above, with E742H counted along it
The target in the next data set is TaqKR (Thermus aquaticus, UniProt P19821 1-832, E742K;A743R). Described as above. The settings on record: protein: recombinant; label: 32P on 27mer; primer-template; 27 bp duplex, 5' overhang 22 nt on the 49mer template.
TaqKR, sequence (P19821 whole entry E742K/A743R): as the sequence (P19821 whole entry, change not shown) above, with E742K, A743R counted along it
Another data set concerns the target TaqKK (Thermus aquaticus, UniProt P19821 1-832, E742K;A743K). The data set is described as above. Conditions: protein: recombinant; label: 32P on 27mer; primer-template; 27 bp duplex, 5' overhang 22 nt on the 49mer template.
A further data set concerns the target TaqQY (Thermus aquaticus, UniProt P19821 1-832, E742Q;A743Y). The data set is described as above. Conditions: protein: recombinant; label: 32P on 27mer; primer-template; 27 bp duplex, 5' overhang 22 nt on the 49mer template.
For the next data set, the target named is TaqAR (Thermus aquaticus, UniProt P19821 1-832, E742A;A743R). Described as above. Conditions: protein: recombinant; label: 32P on 27mer; primer-template; 27 bp duplex, 5' overhang 22 nt on the 49mer template.
TaqAR, sequence (P19821 whole entry E742A/A743R): as the sequence (P19821 whole entry, change not shown) above, with E742A, A743R counted along it
The next data set concerns the target TaqRK (Thermus aquaticus, UniProt P19821 1-832, E742R;A743K). The data set is described as above. Conditions: protein: recombinant; label: 32P on 27mer; primer-template; 27 bp duplex, 5' overhang 22 nt on the 49mer template.
The target of the next data set is TaqRA (Thermus aquaticus, UniProt P19821 1-832, E742R). Described as above. Conditions: protein: recombinant; label: 32P on 27mer; primer-template; 27 bp duplex, 5' overhang 22 nt on the 49mer template.
TaqRA, sequence (P19821 whole entry E742R): as the sequence (P19821 whole entry, change not shown) above, with E742R counted along it
For a further data set, the target named is TaqHK (Thermus aquaticus, UniProt P19821 1-832, E742H;A743K). The description is as above. Conditions: protein: recombinant; label: 32P on 27mer; primer-template; 27 bp duplex, 5' overhang 22 nt on the 49mer template.
TaqHK, sequence (P19821 whole entry E742H/A743K): as the sequence (P19821 whole entry, change not shown) above, with E742H, A743K counted along it
In another data set the target is TaqER (Thermus aquaticus, UniProt P19821 1-832, A743R). The description is as above. Conditions: protein: recombinant; label: 32P on 27mer; primer-template; 27 bp duplex, 5' overhang 22 nt on the 49mer template.
TaqER, sequence (P19821 whole entry A743R): as the sequence (P19821 whole entry, change not shown) above, with A743R counted along it
The target of data set [14] is Taq DNA polymerase WT (TaqEA) (Thermus aquaticus, UniProt P19821 1-832). Described as above. Conditions: protein: recombinant; label: 32P on 27mer; primer-template; 27 bp duplex, 5' overhang 22 nt on the 49mer template.
Taq DNA polymerase WT (TaqEA), sequence (P19821 whole entry): as the sequence (P19821 whole entry, change not shown) above
Another data set has as its target TaqAH (Thermus aquaticus, UniProt P19821 1-832, E742A;A743H). The data set is described as above. The settings on record: protein: recombinant; label: 32P on 27mer; primer-template; 27 bp duplex, 5' overhang 22 nt on the 49mer template.
The next data set deals with TaqRR (Thermus aquaticus, UniProt P19821 1-832, E742R;A743R). Described as above. The settings on record: protein: recombinant; label: 32P on 27mer; primer-template; 27 bp duplex, 5' overhang 22 nt on the 49mer template.
TaqRR, sequence (P19821 whole entry E742R/A743R): as the sequence (P19821 whole entry, change not shown) above, with E742R, A743R counted along it
The target in a further data set is TaqHH (Thermus aquaticus, UniProt P19821 1-832, E742H;A743H). The description is as above. Conditions: protein: recombinant; label: 32P on 27mer; primer-template; 27 bp duplex, 5' overhang 22 nt on the 49mer template.
TaqHH, sequence (P19821 whole entry E742H/A743H): as the sequence (P19821 whole entry, change not shown) above, with E742H, A743H counted along it
For a further data set, the target named is TaqEH (Thermus aquaticus, UniProt P19821 1-832, A743H). The description is as above. Conditions: protein: recombinant; label: 32P on 27mer; primer-template; 27 bp duplex, 5' overhang 22 nt on the 49mer template.
TaqEH, sequence (P19821 whole entry A743H): as the sequence (P19821 whole entry, change not shown) above, with A743H counted along it

chimeric Taq 1-2 (Thermus aquaticus / environmental DNA chimera), sequence (P19821 whole entry, change not shown): as the sequence (P19821 whole entry, change not shown) above
chimeric Taq 10-1 (Thermus aquaticus / environmental DNA chimera), sequence (P19821 whole entry, stated change not applied): as the sequence (P19821 whole entry, change not shown) above
chimeric Taq 4-2 (Thermus aquaticus / environmental DNA chimera), sequence (P19821 whole entry, change not shown): as above
TaqAH, sequence (P19821 whole entry E742A/A743H): as the sequence (P19821 whole entry, change not shown) above, with E742A, A743H counted along it
TaqQY, sequence (P19821 whole entry E742Q/A743Y): as the sequence (P19821 whole entry, change not shown) above, with E742Q, A743Y counted along it
TaqKK, sequence (P19821 whole entry E742K/A743K): as the sequence (P19821 whole entry, change not shown) above, with E742K, A743K counted along it
TaqRK, sequence (P19821 whole entry E742R/A743K): as the sequence (P19821 whole entry, change not shown) above, with E742R, A743K counted along it

On to “AGCTATGACCATGATTACGAATTGCTT / AGCTACCATGCCTGCACGAATTAAGCAATTCGTAATCATGGTCATAGCT [primed DNA (27mer/49mer)]”, for which the Kd turned out to be 10 nM in data set [1]; 5 nM in data set [2]; 10 nM in [3]; 20 nM in data set [4]; 5 nM in [5]; 8 nM in data set [6]. The Kd in [7] came out at 6 nM; in data set [8] it was 4 nM; in data set [9], 4 nM; in data set [10], 4 nM; in data set [11], 7 nM; in data set [12], 10 nM. Besides, in [13], the Kd worked out at 4 nM.

B1: primed DNA (27mer/49mer) (dsDNA)
DNA 1: AGCTATGACCATGATTACGAATTGCTT
DNA 2: AGCTACCATGCCTGCACGAATTAAGCAATTCGTAATCATGGTCATAGCT
B1: the Kd with TaqAA turned out to be 9 nM; in the data set with TaqHA, 6 nM; with TaqKR, 10 nM; with TaqKK, 10 nM; with TaqQY, 10 nM; with TaqAR, 8 nM. The Kd amounted to 10 nM in the data set with TaqRK; 8 nM with TaqRA; 6 nM with TaqHK; 8 nM in the data set with TaqER; 400 nM in [14]; 6 nM with TaqAH. In addition, the Kd stood at 9 nM with TaqRR, 6 nM with TaqHH and 6 nM with TaqEH.
